Laboratory results from the supplement of paper PMC5998384.

Columns and labels:
HeLa Kyoto [1] = assay: solubility change mitosis vs G1/S (difference of NP-40 vs SDS log2 ratios) (log2 ratio difference); higher = more soluble in mitosis
HeLa Kyoto [2] = assay: melting temperature (median over replicates), in situ; higher = more thermally stable
HeLa Kyoto [3] = assay: thermal stability score vs G1/S (z-score of summed log2 fold changes over temperatures); higher = more thermally stable than in G1/S
HeLa Kyoto [4] = assay: solubility in G1/S (NP-40 vs SDS abundance) (log2 ratio); higher = more soluble; conditions: cell cycle stage: G1/S
[5] = cell cycle stage: early G1 (4.5 h after nocodazole release)
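For melting temperature (median over replicates), in situ in this document: HeLa Kyoto cells synchronized by double thymidine or nocodazole block, proteins quantified by TMT10plex mass spectrometry, three independent biological replicates.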
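For solubility change mitosis vs G1/S (difference of NP-40 vs SDS log2 ratios) in this document: synchronized HeLa Kyoto cells (double thymidine block for G1/S, nocodazole release for mitosis), protein amounts in NP-40 versus SDS lysates quantified by mass spectrometry, three biological replicates.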
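For solubility in G1/S (NP-40 vs SDS abundance) in this document: HeLa Kyoto cells arrested at G1/S by double thymidine block, proteins quantified by TMT10plex mass spectrometry in mild NP-40 versus SDS extracts, three biological replicates.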
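For thermal stability score vs G1/S (z-score of summed log2 fold changes over temperatures) in this document: synchronized HeLa Kyoto cells, proteins quantified by TMT10plex mass spectrometry, three biological replicates, mitosis taken 0.5 h after nocodazole release, G1/S directly after double thymidine block.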

Sequence | solubility change mitosis (log2) (HeLa Kyoto [1]) | melting temperature (HeLa Kyoto [2]; cell cycle stage: G1/S) [°C] | melting temperature (HeLa Kyoto [2]; cell cycle stage: mitosis) [°C] | thermal stability score (HeLa Kyoto [3]; [5]) | thermal stability score (HeLa Kyoto [3]; cell cycle stage: mitosis) | solubility in G1/S (log2) (HeLa Kyoto [4])
MSNPFAHLAEPLDPVQPGKKFFNLNKLEDSRYGRLPFSIRVLLEAAIRNCDEFLVKKQDIENILHWNVTQHKNIEVPFKPARVILQDFTGVPAVVDFAAMRDAVKKLGGDPEKINPVCPADLVIDHSIQVDFNRRADSLQKNQDLEFERNRERFEFLKWGSQAFHNMRIIPPGSGIIHQVNLEYLARVVFDQDGYYYPDSLVGTDSHTTMIDGLGILGWGVGGIEAEAVMLGQPISMVLPQVIGYRLMGKPHPLVTSTDIVLTITKHLRQVGVVGKFVEFFGPGVAQLSIADRATIANMCPEYGATAAFFPVDEVSITYLVQTGRDEEKLKYIKKYLQAVGMFRDFNDPSQDPDFTQVVELDLKTVVPCCSGPKRPQDKVAVSDMKKDFESCLGAKQGFKGFQVAPEHHNDHKTFIYDNTEFTLAHGSVVIAAITSCTNTSNPSVMLGAGLLAKKAVDAGLNVMPYIKTSLSPGSGVVTYYLQESGVMPYLSQLGFDVVGYGCMTCIGNSGPLPEPVVEAITQGDLVAVGVLSGNRNFEGRVHPNTRANYLASPPLVIAYAIAGTIRIDFEKEPLGVNAKGQQVFLKDIWPTRDEIQAVERQYVIPGMFKEVYQKIETVNESWNALATPSDKLFFWNSKSTYIKSPPFFENLTLDLQPPKSIVDAYVLLNLGDSVTTDHISPAGNIARNSPAARYLTNRGLTPREFNSYGSRRGNDAVMARGTFANIRLLNRFLNKQAPQTIHLPSGEILDVFDAAERYQQAGLPLIVLAGKEYGAGSSRDWAAKGPFLLGIKAVLAESYERIHRSNLVGMGVIPLEYLPGENADALGLTGQERYTIIIPENLKPQMKVQVKLDTGKTFQAVMRFDTDVELTYFLNGGILNYMIRKMAK [ACO1] | -0.178 | 54 | 53.1 | -1.5 | -0.466 | -0.0477
MSPARRCRGMRAAVAASVGLSEGPAGSRSGRLFRPPSPAPAAPGARLLRLPGSGAVQAASPERAGWTEALRAAVAELRAGAVVAVPTDTLYGLACAASCSAALRAVYRLKGRSEAKPLAVCLGRVADVYRYCRVRVPEGLLKDLLPGPVTLVMERSEELNKDLNPFTPLVGIRIPDHAFMQDLAQMFEGPLALTSANLSSQASSLNVEEFQDLWPQLSLVIDGGQIGDGQSPECRLGSTVVDLSVPGKFGIIRPGCALESTTAILQQKYGLLPSHASYL [YRDC] | -0.0312 | 52.3 | 52.7 | 0.325 | 0.668 | 0.378
MSQAVQTNGTQPLSKTWELSLYELQRTPQEAITDGLEIVVSPRSLHSELMCPICLDMLKNTMTTKECLHRFCADCIITALRSGNKECPTCRKKLVSKRSLRPDPNFDALISKIYPSRDEYEAHQERVLARINKHNNQQALSHSIEEGLKIQAMNRLQRGKKQQIENGSGAEDNGDSSHCSNASTHSNQEAGPSNKRTKTSDDSGLELDNNNAAMAIDPVMDGASEIELVFRPHPTLMEKDDSAQTRYIKTSGNATVDHLSKYLAVRLALEELRSKGESNQMNLDTASEKQYTIYIATASGQFTVLNGSFSLELVSEKYWKVNKPMELYYAPTKEHK [RNF2] | 0.211 | 49.2 | 51.7 | 0.412 | 0.728 | -0.307
MSQPGIPASGGAPASLQAQNGAALASGSPYTNGPVQNALLSSQESVSQGYNFQLPGSYPHPIPAKTLNPVSGQSNYGGSQGSGQTLNRPPVASNPVTPSLHSGPAPRMPLPASQNPATTPMPSSSFLPEANLPPPLNWQYNYPSTASQTNHCPRASSQPTVSGNTSLTTNHQYVSSGYPSLQNSFIKSGPSVPPLVNPPLPTTFQPGAPHGPPPAGGPPPVRALTPLTSSYRDVPQPLFNSAVNQEGITSNTNNGSMVVHSSYDEIEGGGLLATPQLTNKNPKMSRSVGYSYPSLPPGYQNTTPPGATGVPPSSLNYPSGPQAFTQTPLGANHLTTSMSGLSLQPEGLRVVNLLQERNMLPSTPLKPPVPNLHEDIQKLNCNPELFRCTLTSIPQTQALLNKAKLPLGLLLHPFKDLVQLPVVTSSTIVRCRSCRTYINPFVSFLDQRRWKCNLCYRVNDVPEEFLYNPLTRVYGEPHRRPEVQNATIEFMAPSEYMLRPPQPPVYLFVFDVSHNAVETGYLNSVCQSLLDNLDLLPGNTRTKIGFITFDSTIHFYGLQESLSQPQMLIVSDIEDVFIPMPENLLVNLNESKELVQDLLKTLPQMFTKTLETQSALGPALQAAFKLMSPTGGRMSVFQTQLPTLGVGALKPREEPNHRSSAKDIHMTPSTDFYKKLALDCSGQQVAVDLFLLSGQYSDLASLGCISRYSAGSVYYYPSYHHQHNPVQVQKLQKELQRYLTRKIGFEAVMRIRCTKGLSIHTFHGNFFVRSTDLLSLPNVNPDAGYAVQMSVEESLTDTQLVSFQSALLYTSSKGERRIRVHTLCLPVVSTLNDVFLGADVQAISGLLANMAVDRSMTASLSDARDALVNAVIDSLSAYRSSVLSNQQPGLMVPFSLRLFPLFVLALLKQKSFQTGTNARLDERIFAMCQVKNQPLVYLMLTTHPSLYRVDNLSDEGALNISDRTIPQPPILQLSVEKLSRDGAFLMDAGSVLMLWVGKNCTQNFLSQVLGVQNYASIPQPMTDLPELDTPESARIIAFISWLREQRPFFPILYVIRDESPMKANFLQNMIEDRTESALSYYEFLLHIQQQVNK [SEC24A] | -0.0997 | 49.5 | 49.5 | 0.052 | 0.892 | 0.00033
MSQPPPPPPPLPPPPPPPEAPQTPSSLASAAASGGLLKRRDRRILSGSCPDPKCQARLFFPASGSVSIECTECGQRHEQQQLLGVEEVTDPDVVLHNLLRNALLGVTGAPKKNTELVKVMGLSNYHCKLLSPILARYGMDKQTGRAKLLRDMNQGELFDCALLGDRAFLIEPEHVNTVGYGKDRSGSLLYLHDTLEDIKRANKSQECLIPVHVDGDGHCLVHAVSRALVGRELFWHALRENLKQHFQQHLARYQALFHDFIDAAEWEDIINECDPLFVPPEGVPLGLRNIHIFGLANVLHRPIILLDSLSGMRSSGDYSATFLPGLIPAEKCTGKDGHLNKPICIAWSSSGRNHYIPLVGIKGAALPKLPMNLLPKAWGVPQDLIKKYIKLEEDGGCVIGGDRSLQDKYLLRLVAAMEEVFMDKHGIHPSLVADVHQYFYRRTGVIGVQPEEVTAAAKKAVMDNRLHKCLLCGALSELHVPPEWLAPGGKLYNLAKSTHGQLRTDKNYSFPLNNLVCSYDSVKDVLVPDYGMSNLTACNWCHGTSVRKVRGDGSIVYLDGDRTNSRSTGGKCGCGFKHFWDGKEYDNLPEAFPITLEWGGRVVRETVYWFQYESDSSLNSNVYDVAMKLVTKHFPGEFGSEILVQKVVHTILHQTAKKNPDDYTPVNIDGAHAQRVGDVQGQESESQLPTKIILTGQKTKTLHKEELNMSKTERTIQQNITEQASVMQKRKTEKLKQEQKGQPRTVSPSTIRDGPSSAPATPTKAPYSPTTSKEKKIRITTNDGRQSMVTLKSSTTFFELQESIAREFNIPPYLQCIRYGFPPKELMPPQAGMEKEPVPLQHGDRITIEILKSKAEGGQSAAAHSAHTVKQEDIAVTGKLSSKELQEQAEKEMYSLCLLATLMGEDVWSYAKGLPHMFQQGGVFYSIMKKTMGMADGKHCTFPHLPGKTFVYNASEDRLELCVDAAGHFPIGPDVEDLVKEAVSQVRAEATTRSRESSPSHGLLKLGSGGVVKKKSEQLHNVTAFQGKGHSLGTASGNPHLDPRARETSVVRKHNTGTDFSNSSTKTEPSVFTASSSNSELIRIAPGVVTMRDGRQLDPDLVEAQRKKLQEMVSSIQASMDRHLRDQSTEQSPSDLPQRKTEVVSSSAKSGSLQTGLPESFPLTGGTENLNTETTDGCVADALGAAFATRSKAQRGNSVEELEEMDSQDAEMTNTTEPMDHS [VCPIP1] | -0.0432 | 48.3 | 48.8 | 1.21 | 1.02 | -0.111
MSQTAMSETYDFLFKFLVIGNAGTGKSCLLHQFIEKKFKDDSNHTIGVEFGSKIINVGGKYVKLQIWDTAGQERFRSVTRSYYRGAAGALLVYDITSRETYNALTNWLTDARMLASQNIVIILCGNKKDLDADREVTFLEASRFAQENELMFLETSALTGENVEEAFVQCARKILNKIESGELDPERMGSGIQYGDAALRQLRSPRRAQAPNAQECGC [RAB4A] | -0.0763 | 59.5 | 57.6 | -3.03 | -3.68 | 0.0401
